Article PMC8420766, “Crystal structure of a MarR family protein from the psychrophilic bacterium Paenisporosarcina sp. TG-14 in complex with a lipid-like molecule” (IUCrJ, 2021)
Values belong to the molecule of their own block, whether it stands above or below them.

What was measured:
[1] = molecular target: MarR protein from Paenisporosarcina sp. TG-14 (Paenisporosarcina sp. TG-14); test: AUC; analytical ultracentrifugation at 40 000 rev/min, 20°C, detection at 280 nm, analysed with SEDFIT; one peak at a sedimentation coefficient of about 2.5 (31.3 kDa)
PaMarR [2] = molecular target: T1, PaMarR (Paenisporosarcina sp. TG-14, UniProt A0A8J9SKQ8); test: X-ray crystal structure; assay type: binding; settings: 1.6 A; co-purified from expression culture, not added; identity assigned from electron density; deep cavity in dimerization domain (helices a1, a6, a7), putative effector site; ammonium citrate pH 7.0
T1 construct: gene E2636_00495; N-terminal His6 tag (pET-28a(+), NdeI/XhoI) removed with thrombin; E. coli BL21(DE3); gene primer start TTGGATAAGAGAATAC (N-terminus M/L-DKRI)

PaMarR [3] = molecular target: T2, PaMarR (Paenisporosarcina sp. TG-14, UniProt A0A8J9SKQ8 1-147); test: EMSA; 0.3-2.1 uM PaMarR, 0.5 uM duplex; B1 (one site) at low, B2 (both sites) at high protein; protein contains palmitate; EMSA: Dulbecco's PBS, 12% (v/v) glycerol, 0.5 uM duplex, 15 min at 37 C, 20 ul; 8% native PAGE with 5% glycerol in Tris-borate; pH not stated; settings: protein: recombinant; tags: N-terminal His6 (pET-28a NdeI/XhoI), removed with thrombin; chain copies: 2; label: none (GelRed stain); as printed: 52 bp duplex, 3' overhang 13 nt on strand 1 (second strand may be printed incompletely; Methods say complementary oligos)
T2 sequence: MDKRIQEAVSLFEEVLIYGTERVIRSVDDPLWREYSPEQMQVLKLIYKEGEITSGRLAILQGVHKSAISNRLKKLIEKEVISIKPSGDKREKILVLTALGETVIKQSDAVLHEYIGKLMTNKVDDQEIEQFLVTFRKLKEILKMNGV

- stoichiometry N [1]: 2
Molecule: MarR protein from Paenisporosarcina sp. TG-14 (natural protein)

Molecule: CCCCCCCCCCCCCCCC(=O)O [palmitic acid]
- X-ray crystal structure (PaMarR [2]): a model of palmitic acid containing a 16-carbon chain was built, which had the best fit

B1: Palindrome probe (putative binding sites 1 and 2) (dsDNA)
DNA 1: TTTTAATAGTTCACCCCCTAAACTAACGTTATTGGTTTAGGGGGTGAACTATTATGCCCCCCATA
DNA 2: ATAGTTCACCCCCTAAACCAATAACGTTAGTTTAGGGGGTGAACTATTAAAA
- binding result (PaMarR [3]): binds
